Results from patent US5994296A, “Human mutant tissue factor compositions useful as tissue factor antagonists” (priority 1998, dated 1999).
Numbering of substitutions follows the chain as printed.

B1: Ser-16: human tissue factor mutant with alanine substituted for Ser-16 (protein, UniProt P13726 33-295, looked up, variant S16A)
Tissue factor: SGTTNTVAAYNLTWKATNFKTILEWEPKPVNQVYTVQISTKSGDWKSKCFYTTDTECDLTDEIVKDVKQTYLARVFSYPAGNVESTGSAGEPLYENSPEFTPYLETNLGQPTIQSFEQVGTKVNVTVEDERTLVRRNNTFLSLRDVFGKDLIYTLYYWKSSSSGKKTAKTNTNEFLIDVDKGENYCFSVQAVIPSRTVNRKSTDSPVECMGQEKGEFREIFYIIGAVVFVVIILVIILAISLHKCRKAGVGQSWKENSPLNVS
B2: Arg-131: human tissue factor alanine mutant at Arg-131 (protein, UniProt P13726 33-295, looked up, variant R131A)
Tissue factor: B1 Tissue factor with A16S, R131A
B3: Asp-145: human tissue factor alanine mutant at Asp-145 (protein, UniProt P13726 33-295, looked up, variant D145A)
Tissue factor: B1 Tissue factor with A16S, D145A
B4: S39-T40-S42: human tissue factor triple mutant with alanines at positions 39, 40 and 42 (protein, UniProt P13726 33-295, looked up, variant S39A T40A S42A)
Tissue factor: B1 Tissue factor with A16S, S39A, T40A, S42A
B5: S16-T17-K20: human tissue factor triple mutant with alanines at positions 16, 17 and 20 (protein, UniProt P13726 33-295, looked up, variant S16A T17A K20A)
Tissue factor: B1 Tissue factor with T17A, K20A
B6: Phe-19: human tissue factor mutant with alanine substituted for Phe-19 (protein, UniProt P13726 33-295, looked up, variant F19A)
Tissue factor: B1 Tissue factor with A16S, F19A
B7: Val-146: human tissue factor alanine mutant at Val-146 (protein, UniProt P13726 33-295, looked up, variant V146A)
Tissue factor: B1 Tissue factor with A16S, V146A
B8: K65-D66-K68: human tissue factor triple alanine mutant at positions 65, 66 and 68 (protein, UniProt P13726 33-295, looked up, variant K65A D66A K68A)
Tissue factor: B1 Tissue factor with A16S, K65A, D66A, K68A
B9: Ile-22 to Ala: human tissue factor mutant with alanine substituted for Ile-22 (protein, UniProt P13726 33-295, looked up, variant I22A)
Tissue factor: B1 Tissue factor with A16S, I22A
B10: Arg-200/Lys-201: human tissue factor alanine double mutant at Arg-200 and Lys-201 (protein, UniProt P13726 33-295, looked up, variant R200A K201A)
Tissue factor: B1 Tissue factor with A16S, R200A, K201A
B11: Val-67: human tissue factor mutant with alanine substituted for Val-67 (protein, UniProt P13726 33-295, looked up, variant V67A)
Tissue factor: B1 Tissue factor with A16S, V67A
B12: Arg-135: human tissue factor alanine mutant at Arg-135 (protein, UniProt P13726 33-295, looked up, variant R135A)
Tissue factor: B1 Tissue factor with A16S, R135A
B13: Thr-139/Ser-142: human tissue factor alanine double mutant at Thr-139 and Ser-142 (protein, UniProt P13726 33-295, looked up, variant T139A S142A)
Tissue factor: B1 Tissue factor with A16S, T139A, S142A
B14: Asn-199: human tissue factor alanine mutant at Asn-199 (protein, UniProt P13726 33-295, looked up, variant N199A)
Tissue factor: B1 Tissue factor with A16S, N199A
B15: Phe-140: human tissue factor alanine mutant at Phe-140 (protein, UniProt P13726 33-295, looked up, variant F140A)
Tissue factor: B1 Tissue factor with A16S, F140A
B16: Asp-58 to Ala: human tissue factor mutant with alanine substituted for Asp-58 (protein, UniProt P13726 33-295, looked up, variant D58A)
Tissue factor: B1 Tissue factor with A16S, D58A
B17: Arg-196: human tissue factor alanine mutant at Arg-196 (protein, UniProt P13726 33-295, looked up, variant R196A)
Tissue factor: B1 Tissue factor with A16S, R196A
B18: Val-198: human tissue factor alanine mutant at Val-198 (protein, UniProt P13726 33-295, looked up, variant V198A)
Tissue factor: B1 Tissue factor with A16S, V198A
B19: Thr-17: human tissue factor mutant with alanine substituted for Thr-17 (protein, UniProt P13726 33-295, looked up, variant T17A)
Tissue factor: B1 Tissue factor with A16S, T17A
B20: Val-64/Tyr-71 to Ala: human tissue factor double mutant with alanines for Val-64 and Tyr-71 (protein, UniProt P13726 33-295, looked up, variant V64A Y71A)
Tissue factor: B1 Tissue factor with A16S, V64A, Y71A
B21: Phe-147: human tissue factor alanine mutant at Phe-147 (protein, UniProt P13726 33-295, looked up, variant F147A)
Tissue factor: B1 Tissue factor with A16S, F147A
B22: Tyr-71: human tissue factor mutant with alanine substituted for Tyr-71 (protein, UniProt P13726 33-295, looked up, variant Y71A)
Tissue factor: B1 Tissue factor with A16S, Y71A
B23: Arg-136: human tissue factor alanine mutant at Arg-136 (protein, UniProt P13726 33-295, looked up, variant R136A)
Tissue factor: B1 Tissue factor with A16S, R136A
B24: Thr-106: human tissue factor mutant with Ala replacement for Thr-106 (protein, UniProt P13726 33-295, looked up, variant T106A)
Tissue factor: B1 Tissue factor with A16S, T106A
B25: Glu-105: human tissue factor mutant with Ala replacement for Glu-105 (protein, UniProt P13726 33-295, looked up, variant E105A)
Tissue factor: B1 Tissue factor with A16S, E105A

Experiments:
recalcified plasma = assay: one stage clotting (coagulation) assay of full-length TF mutants in CHO cell lysates; format: biochemical; settings: for reduction in specific functional activity (loss of function) relative to wild-type TF: coagulant activity normalized to antigen concentration, full-length mutants expressed in CHO cells; for reduction in tissue factor procoagulant cofactor activity when compared to wt-TF: summary statement in the description
Description: The full-length TF mutants prepared above were analyzed for function by coagulation assay. […] Coagulation factor deficient plasmas were purchased from George King Bio-medical. The chromogenic substrate, Spectrozyme FXa, was from American Diagnostica Inc. (Greenwich, Conn.).
An alternative approach was to use a polyvalent antibody purified by affinity for capturing TF followed by detection with the TF8-5G9 monoclonal antibody described above.
Initiation of coagulation by wild-type and mutant TF in recalcified plasma was determined after lysis of cell pellets from 2×10^6 cells/ml for each expressed full-length mutant with 15 mM octyl-glucopyranoside in HBS for 15 minutes at 37C. followed by a 3-fold dilution.
All data represented are based on at least three independent determinations performed in duplicate.

VIIa = assay: linked chromogenic assay with purified VIIa and factor X (apparent dissociation constant of TF-VIIa); format: binding; settings: 5 mM Ca2+, Factor X 100 nM
Description: The lysate was prepared by treating cell pellets with 15 mM octyl-glucopyranoside for 15 minutes at 37C. followed by a 3-fold dilution. […] Formed TF-VIIa complexes were quantified with substrate factor X added at 100 nM for a fixed time. Samples were then removed from the reaction and quenched in 100 mM EDTA in TBS (20 mM Tris-HCl, 140 mM NaCl, pH 7.4). The formation of Xa in the quenched reaction was determined with the chromogenic peptidyl substrate, Spectrozyme FXa (1.2 mM). The rate of Spectrozyme hydrolysis, measured as the increase in absorbance (mOD/min), was determined at ambient temperature in a kinetic plate reader (Molecular Devices, Mountain View, Calif.) followed by quenching and monitoring of product factor Xa formation using the Spectrozyme FXa.
Enzfitter (Elsevier Biosoft) programs were employed to calculate the KDapp from the experimentally determined bound VIIa, and free VIIa which was obtained by subtracting bound VIIa from the initial VIIa concentration.

| Molecule | reduction in specific functional activity (loss of function) relative to wild-type TF (recalcified plasma) | reduction in tissue factor procoagulant cofactor activity when compared to wt-TF (recalcified plasma) | increase in KDapp for the TF-VIIa interaction compared to wild-type TF (ratio KD mutant/KD wild-type) (VIIa) |
| --- | --- | --- | --- |
| B1 | more than 70% | ≥ 75% | – |
| B2 | 30-50% | – | – |
| B3 | 30-50% | – | – |
| B4 | 43% | – | – |
| B5 | 98% | – | – |
| B6 | more than 70% | – | – |
| B7 | 30-50% | – | – |
| B8 | 70% | – | – |
| B9 | 35% | – | 11 fold |
| B10 | 30-80% | – | – |
| B11 | 53% | – | – |
| B12 | 30-50% | – | 7.4 fold |
| B13 | 30-50% | – | – |
| B14 | 30-80% | ≥ 75% | – |
| B15 | 30-50% | – | 18 fold |
| B16 | – | – | 41 fold |
| B17 | – | – | 3.5 fold |
| B18 | 30-80% | – | – |
| B19 | more than 70% | ≥ 75% | – |
| B20 | – | – | 2.1 fold |
| B21 | 30-50% | – | – |
| B22 | 98% | – | – |
| B23 | 30-50% | – | – |
| B24 | more than 50% | – | – |
| B25 | more than 50% | – | – |
